Patent US8632989B1, “Mutant insulin degrading enzyme and methods of use” (University of Kentucky Research Foundation, priority 2011, dated 2014)

T1: IDE (Rattus norvegicus, UniProt P35559)
T1 construct: hexahistidine (N); made in house; host or cells: Sf9 insect cells (baculovirus, pFastBac HTb)
T1 sequence (P35559 41-1019): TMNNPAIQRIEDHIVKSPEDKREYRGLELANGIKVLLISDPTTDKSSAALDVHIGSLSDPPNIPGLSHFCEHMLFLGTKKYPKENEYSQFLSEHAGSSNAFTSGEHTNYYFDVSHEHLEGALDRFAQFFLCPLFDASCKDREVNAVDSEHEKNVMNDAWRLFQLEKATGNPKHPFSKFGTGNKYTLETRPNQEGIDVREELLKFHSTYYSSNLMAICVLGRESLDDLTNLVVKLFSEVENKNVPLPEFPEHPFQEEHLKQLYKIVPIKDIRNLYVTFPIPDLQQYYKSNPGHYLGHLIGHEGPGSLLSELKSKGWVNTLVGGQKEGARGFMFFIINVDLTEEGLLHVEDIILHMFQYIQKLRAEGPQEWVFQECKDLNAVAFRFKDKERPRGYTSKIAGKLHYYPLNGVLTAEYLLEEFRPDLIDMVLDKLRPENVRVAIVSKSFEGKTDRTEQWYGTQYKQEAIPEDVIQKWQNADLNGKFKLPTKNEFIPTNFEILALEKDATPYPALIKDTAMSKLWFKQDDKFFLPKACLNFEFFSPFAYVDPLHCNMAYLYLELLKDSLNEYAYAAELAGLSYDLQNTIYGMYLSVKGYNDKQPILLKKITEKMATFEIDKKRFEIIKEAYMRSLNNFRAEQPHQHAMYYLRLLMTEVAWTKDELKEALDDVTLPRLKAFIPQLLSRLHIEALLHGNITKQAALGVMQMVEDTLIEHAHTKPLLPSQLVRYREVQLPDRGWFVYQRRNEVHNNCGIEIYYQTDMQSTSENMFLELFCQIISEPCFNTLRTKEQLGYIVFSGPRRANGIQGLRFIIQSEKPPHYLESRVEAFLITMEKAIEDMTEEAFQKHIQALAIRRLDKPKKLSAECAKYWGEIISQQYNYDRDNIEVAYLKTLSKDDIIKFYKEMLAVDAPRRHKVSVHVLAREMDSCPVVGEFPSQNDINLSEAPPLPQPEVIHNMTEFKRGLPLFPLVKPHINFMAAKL


Tests used:
IDE = target: T1, IDE; test: γ-methylene-ATP versus ATP activation of IDE-dependent hydrolysis of Abz-[…]-EDDnp; assay type: biochemical; conditions: 10 μM substrate, compared with ATP
Protocol: Activity was determined in 50 mM Tris-HCl, pH 7.4 with 10 μM Abz-[…]-EDDnp (SEQ ID NO:3) as substrate and indicated concentrations of ATP or γ-methylene-ATP. Reactions contained 0.1 μg of protein.
(§1) IDE activity was determined by measuring the increase in fluorescence that occurs when the enzyme cleaves the internally quenched fluorogenic substrate Abz-[…]-EDDnp (SEQ ID NO:3) at the R—K bond (Song et al., Journal of Biologial Chemistry 276, 1152-1155 (2001)). The reaction was followed on a SpectraMax Gemini XS fluorescence plate reader using an excitation and emission wavelengths of 318 nm and 419 nm, respectively. Initial velocities were determined using SoftMax Pro 4.0 and kinetic constants calculated using GraphPad Prism 4.0. ATPase activity was measured by following Pi release with acid-molybdate as described by Harder et al. (Harder et al., Biochemical Journal 298 (Pt 2), 395-401 (1994)).

Abz-GGFLRKHGQ-EDDnp [1] = test: Effect of bradykinin on Abz-[…]-EDDnp hydrolysis, IDE and ATP binding site mutants; assay type: biochemical; conditions: 10 μM substrate, bradykinin as activator
Protocol: Activity was determined in 50 mM Tris-HCl, pH 7.4 with 10 μM Abz-[…]-EDDnp (SEQ ID NO:3) as substrate and indicated concentrations of bradykinin. Reactions contained 0.5 μg of protein.
as §1

Abz-GGFLRKHGQ-EDDnp [2] = test: Enzyme activity assay, kinetics of IDE and ATP binding site mutants with fluorogenic substrate; assay type: biochemical; conditions: rat IDE, Abz-GGFLRKHGQ-EDDnp as substrate
Protocol: Reactions were conducted in 50 mM Tris-HCl, pH 7.4.
as §1

[3] = TNP-ATP fluorescence measurements, IDE and ATP binding site mutants; conditions: 1.5 μM enzyme, 10 μM TNP-ATP, λexc=403 nm
Protocol: Fluorescence emission spectra were recorded on a Perkin-Elmer LS 55 Luminescence spectrometer with 1.5 μM of IDE, IDE^R429S or IDE^K898A,K899A,S901A in 50 mM Tris-HCl, pH 7.4 with 10 μM TNP-ATP. Fluorescence spectra were recorded with a λexc=403 nm.
TNP-ATP [2′,3′-O-(2,4,6-Trinitrophenyl)adenosine-5′-triphosphate] fluorescence was monitored at excitation and emission wavelengths of 403 nm and 547 nm, respectively, using a Perkin-Elmer LS55 Luminescence Spectrometer at 20±0.1° C. TNP-ATP (Molecular Probes, Inc.) as supplied was diluted to 4 mM with 50 mM Tris-HCl, pH 7.4, and added to achieve the indicated concentrations.

Saccharomyces cerevisiae = test: IDE activity assay in yeast, serial dilution mating test; assay type: cell-based; conditions: yeast assays
Protocol: Panel A depicts immunoblot of yeast-expressed IDE and IDE^K898A,K899A,S901A. Equivalent percentage amounts of total cellular extracts from yeast containing an empty expression vector or plasmids encoding IDE or the IDE^K898A,K899A,S901A mutant were analyzed by SDS-PAGE and immunoblotting using an IDE-specific antibody. […] An excess of MATa yeast were mixed with decreasing numbers of MATa cells deficient for Axl1p and Step 23p that were transformed with either an empty expression vector or a vector encoding IDE or IDE^K898A,K899A,S901A as indicated. Mating, which leads to colony growth, is dependent on production of mature a-factor pheromone by plasmid-encoded IDE. […] Concentrated samples of a-factor recovered from yeast bearing the indicated expression vector were spotted at the indicated dilutions on a lawn of RC757 MATa cells, which undergo growth arrest upon exposure to a-factor pheromone. […]
The assays take advantage of the ability of IDE, in lieu of the yeast M16 metallopeptidases Axl1p and Step 23p, to participate in the proteolytic maturation of yeast a-factor mating pheromone. […] Growth of diploid colonies, indicative of mating, was scored 3 days after incubation of plates at 30° C. […] Results of mating tests and halo assays were recorded by scanning plates with a Microtek flatbed scanner and importing digitized images into Photoshop and PowerPoint.

Abz-GGFLRKHGQ-EDDnp [4] = test: Activation by ATP of Abz-[…]-EDDnp hydrolysis, IDE and ATP binding site mutants; assay type: biochemical; conditions: 10 μM Abz-GGFLRKHGQ-EDDnp as substrate
Protocol: Activity was determined in 50 mM Tris-HCl, pH 7.4 with 10 μM Abz-[…]-EDDnp (SEQ ID NO:3) as substrate at the indicated concentrations of ATP (panel A), PPPi (panel B) or, TNP-ATP (panel C). Each reaction contained 0.5 μg of enzyme.
as §1

Molecule	ability to activate Abz-GGFLRKHGQ-EDDnp hydrolysis by IDE (IDE)	rate of Abz-GGFLRKHGQ-EDDnp hydrolysis with bradykinin, relative to wild type IDE (Abz-GGFLRKHGQ-EDDnp [1])	Hill coefficient (Abz-GGFLRKHGQ-EDDnp [2])	Km (Abz-GGFLRKHGQ-EDDnp [2]) [mM]	kcat (Abz-GGFLRKHGQ-EDDnp [2]) [s⁻¹]	Vmax (Abz-GGFLRKHGQ-EDDnp [2]; 50 mM Tris-HCl, pH 7.4) [nmol/min/mg]	fluorescence associated with TNP-ATP binding, relative to wild type IDE [3]	intracellular function relative to unmodified IDE (Saccharomyces cerevisiae)	level of activation by ATP, of the wild type value (Abz-GGFLRKHGQ-EDDnp [4])
Nc1ncnc2c1ncn2[C@@H]1O[C@H](COP(=O)(O)OP(=O)(O)CP(=O)(O)O)[C@@H](O)[C@H]1O [γ-methylene ATP]	nearly as well as ATP	–	–	–	–	–	–	–	–
IDE^K898A,K899A,S901A: Rat IDE residues 41-1019 bearing the mutations K898A, K899A, S901A; ATP binding site mutant (protein, listed as Rattus norvegicus, wild-type Insulin Degrading Enzyme (IDE) from rat) MRNGLVWLLHPALPSTLHSILGARPPPVKRLCGFPKQIYSTMNNPAIQRIEDHIVKSPEDKREYRGLELANGIKVLLISDPTTDKSSAALDVHIGSLSDPPNIPGLSHFCEHMLFLGTKKYPKENEYSQFLSEHAGSSNAFTSGEHTNYYFDVSHEHLEGALDRFAQFFLCPLFDASCKDREVNAVDSEHEKNVMNDAWRLFQLEKATGNPKHPFSKFGTGNKYTLETRPNQEGIDVREELLKFHSTYYSSNLMAICVLGRESLDDLTNLVVKLFSEVENKNVPLPEFPEHPFQEEHLKQLYKIVPIKDIRNLYVTFPIPDLQQYYKSNPGHYLGHLIGHEGPGSLLSELKSKGWVNTLVGGQKEGARGFMFFIINVDLTEEGLLHVEDIILHMFQYIQKLRAEGPQEWVFQECKDLNAVAFRFKDKERPRGYTSKIAGKLHYYPLNGVLTAEYLLEEFRPDLIDMVLDKLRPENVRVAIVSKSFEGKTDRTEQWYGTQYKQEAIPEDVIQKWQNADLNGKFKLPTKNEFIPTNFEILALEKDATPYPALIKDTAMSKLWFKQDDKFFLPKACLNFEFFSPFAYVDPLHCNMAYLYLELLKDSLNEYAYAAELAGLSYDLQNTIYGMYLSVKGYNDKQPILLKKITEKMATFEIDKKRFEIIKEAYMRSLNNFRAEQPHQHAMYYLRLLMTEVAWTKDELKEALDDVTLPRLKAFIPQLLSRLHIEALLHGNITKQAALGVMQMVEDTLIEHAHTKPLLPSQLVRYREVQLPDRGWFVYQRRNEVHNNCGIEIYYQTDMQSTSENMFLELFCQIISEPCFNTLRTKEQLGYIVFSGPRRANGIQGLRFIIQSEKPPHYLESRVEAFLITMEKAIEDMTEEAFQKHIQALAIRRLDKPAALAAECAKYWGEIISQQYNYDRDNIEVAYLKTLSKDDIIKFYKEMLAVDAPRRHKVSVHVLAREMDSCPVVGEFPSQNDINLSEAPPLPQPEVIHNMTEFKRGLPLFPLVKPHINFMAAKL	–	significantly reduced	1.7 ± 0.1	17.3 ± 1	0.258 ± 0.01	140.8 ± 5.5	lower fluorescent yield	reduced intracellular function	even less activation
